Reference: the supplement of paper PMC10567573

B1: IKZF1 (parent)
chain: RDPFECNMCGYHSQDRYEFSSHIT

Variants of: B1
Experiment: protein stability index of a GFP-peptide fusion (GPS, HEK-293T) (PSI 1-6); higher = more stable
Conditions: c terminus: a fixed tail appended
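Further: lentivirally expressed fusions sorted by FACS into six bins by GFP to DsRed ratio, PSI derived from sequencing read proportions per bin multiplied by bin number.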

Protein stability index: each site, then its substitutions
Y17: V 1.76 | E 3 | R 2.1 | G 2.19 | P 2.81 | M 2.16 | S 2.43 | T 1.89 | H 2.81 | L 2.22 | A 2.28 | I 2.16 | D 3.1 | N 2.83 | F 2.07 | K 2.21 | Q 2.1 | C 2.38 | W 2.54
C9: Q 2.57 | L 3.05 | D 3.83 | F 2.34 | I 3.08 | Y 2.63 | A 2.98 | P 3.09 | G 3.02 | R 3.24 | N 3.28 | M 3.06 | S 3.42 | V 3.06 | W 2.36 | E 3.7 | K 3.19 | T 3.55 | H 2.63
G10: H 2.33 | R 2.13 | S 2.7 | E 2.79 | Q 2.58 | T 2.69 | M 1.82 | Y 2.66 | W 1.73 | K 2.32 | C 2.49 | F 1.81 | I 1.92 | V 2.07 | P 2.44 | D 2.8 | N 2.4 | L 2.08 | A 2.16
R16: A 2.3 | N 2.57 | Y 1.75 | M 2.78 | P 2.5 | K 2.01 | G 2.56 | S 1.98 | F 2.21 | C 2.23 | V 2.42 | Q 2.33 | T 2.6 | L 2.12 | I 2.74 | D 2.85 | H 2.51 | E 3.15 | W 2.03
P3: D 2.99 | L 1.68 | H 2.59 | R 2.04 | E 2.29 | M 1.76 | T 2.02 | F 1.44 | N 1.94 | K 2.04 | C 2.21 | W 1.69 | V 1.76 | I 1.91 | A 1.64 | Q 2.18 | G 1.94 | S 2.03 | Y 1.5
D2: N 1.96 | S 1.73 | Q 2.04 | H 1.75 | V 2.21 | E 2.18 | P 1.98 | L 1.93 | W 1.92 | K 1.96 | I 2.2 | G 1.95 | R 1.99 | M 1.68 | T 1.82 | A 1.63 | F 1.57 | Y 1.77 | C 2.19
C6: T 3.21 | G 2.3 | F 1.96 | Y 2.04 | D 3.8 | Q 2.38 | A 2.5 | H 2.43 | E 3.58 | R 2.06 | V 2.5 | W 2.5 | L 1.99 | K 2.49 | P 2.23 | M 2.02 | S 2.5 | N 2.56 | I 2.14
S13: N 2.39 | M 1.66 | G 2.17 | L 1.75 | F 1.78 | R 2.04 | T 2.1 | K 2.1 | H 3.15 | P 3 | Q 2.39 | E 2.53 | W 2.28 | V 1.91 | I 1.91 | D 2.49 | C 1.74 | A 2.26 | Y 1.92
Y11: L 2.65 | P 2.69 | K 3.13 | N 2.71 | D 3.51 | S 2.62 | Q 2.61 | C 2.13 | H 2.71 | R 2.62 | V 2.45 | W 1.45 | G 3.49 | T 2.6 | M 2.59
